Measured values as given in PMC11283288 (Nature, 2024).

Target: the molecule itself
Assay: cryo-EM structure

B1: Full-length GSDMD(D275A), C-terminal Flag, palmitoylated (natural protein, human, UniProt P57764 1-484, looked up)
chain: MGSAFERVVRRVVQELDHGGEFIPVTSLQSSTGFQPYCLVVRKPSSSWFWKPRYKCVNLSIKDILEPDAAEPDVQRGRSFHFYDAMDGQIQGSVELAAPGQAKIAGGAAVSDSSSTSMNVYSLSVDPNTWQTLLHERHLRQPEHKVLQQLRSRGDNVYVVTEVLQTQKEVEVTRTHKREGSGRFSLPGATCLQGEGQGHLSQKKTVTIPSGSTLAFRVAQLVIDSDLDVLLFPDKKQRTFQPPATGHKRSTSEGAWPQLPSGLSMMRCLHNFLTAGVPAEGAFTEDFQGLRAEVETISKELELLDRELCQLLLEGLEGVLRDQLALRALEEALEQGQSLGPVEPLDGPAGAVLECLVLSSGMLVPELAIPVVYLLGALTMLSETQHKLLAEALESQTLLGPLELVGSLLEQSAPWQERSTMSLPPGLLGNSWGEGAPAWVLLDECGLELGEDTPHVCWEPQAQGRMCALYASLALLSGLSQEPH
modifications: S-palmitoylation at Cys191
stoichiometry N: 33
